From article PMC3115793 (The Journal of Cell Biology, 2011)

Molecular target: T1, recombinant purified full-length AurA (His-AurA) (UniProt O14965 1-403)
T1 sequence (looked up): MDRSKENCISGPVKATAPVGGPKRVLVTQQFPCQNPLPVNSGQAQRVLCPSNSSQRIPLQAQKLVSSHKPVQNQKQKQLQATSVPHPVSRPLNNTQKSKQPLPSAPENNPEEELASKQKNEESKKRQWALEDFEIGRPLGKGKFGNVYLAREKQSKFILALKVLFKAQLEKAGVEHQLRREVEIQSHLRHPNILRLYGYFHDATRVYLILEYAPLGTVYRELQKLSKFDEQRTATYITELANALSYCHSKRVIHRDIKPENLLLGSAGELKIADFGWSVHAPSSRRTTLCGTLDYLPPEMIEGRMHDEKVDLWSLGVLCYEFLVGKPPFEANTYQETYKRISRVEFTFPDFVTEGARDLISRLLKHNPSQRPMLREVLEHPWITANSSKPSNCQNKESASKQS
Assay: pull-down

binding result: binds
B1: GST fused to aa 779-968 of the PC2 C terminus (domain or fragment, human, UniProt Q13563 779-968, looked up)
chain: RDDLEKEREDLDLDHSSLPRPMSSRSFPRSLDDSEEDDDEDSGHSSRRRGSISSGVSYEEFQVLVRRVDRMEHSIGSIVSKIDAVIVKLEIMERAKLKRREVLGRLLDGVAEDERLGRDSEIHREQMERLVREELERWESDDAASQISHGLGTPVGLNGQPRPRSSRPSSSQSTEGMEGAGGNGSSNVHV
